Paper doi:10.1101/2019.12.17.877662 (bioRxiv, 2019)
Positions count from the first letter of the chain named. Numbers in names are those of the source.

T1: TtRecR G169C (Thermus thermophilus, UniProt Q5SHY0 1-194, G169C)
T1 sequence: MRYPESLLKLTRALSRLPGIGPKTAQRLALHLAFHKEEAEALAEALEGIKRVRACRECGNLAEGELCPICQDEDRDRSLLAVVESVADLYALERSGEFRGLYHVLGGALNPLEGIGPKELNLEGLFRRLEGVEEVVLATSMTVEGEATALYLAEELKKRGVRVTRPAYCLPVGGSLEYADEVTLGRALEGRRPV

T2: TtRecF D57C;TtRecR (Thermus thermophilus;Thermus …, UniProt Q5SLM9;Q5SHY0 1-343;1-194, D57C|)
T2 sequence 1: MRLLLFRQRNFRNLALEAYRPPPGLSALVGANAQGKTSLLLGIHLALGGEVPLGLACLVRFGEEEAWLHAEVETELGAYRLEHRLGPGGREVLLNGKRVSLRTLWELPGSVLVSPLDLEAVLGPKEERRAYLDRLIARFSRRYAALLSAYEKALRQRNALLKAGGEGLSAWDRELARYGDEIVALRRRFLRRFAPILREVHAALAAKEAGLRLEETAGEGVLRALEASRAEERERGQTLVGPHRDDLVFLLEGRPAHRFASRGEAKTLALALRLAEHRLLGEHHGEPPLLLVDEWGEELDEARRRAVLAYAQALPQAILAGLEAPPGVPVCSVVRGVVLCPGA
T2 sequence 2: T1 sequence with C169G

T3: TtRecF S261C (Thermus thermophilus, UniProt Q5SLM9 1-343, S261C)
T3 sequence: T2 sequence 1 with C57D, S261C

T4: TtRecF D57C (Thermus thermophilus, UniProt Q5SLM9 1-343, D57C)
T4 sequence: T2 sequence 1

T5: TtSSB (Thermus thermophilus, UniProt Q5SLP9 1-263)
T5 sequence: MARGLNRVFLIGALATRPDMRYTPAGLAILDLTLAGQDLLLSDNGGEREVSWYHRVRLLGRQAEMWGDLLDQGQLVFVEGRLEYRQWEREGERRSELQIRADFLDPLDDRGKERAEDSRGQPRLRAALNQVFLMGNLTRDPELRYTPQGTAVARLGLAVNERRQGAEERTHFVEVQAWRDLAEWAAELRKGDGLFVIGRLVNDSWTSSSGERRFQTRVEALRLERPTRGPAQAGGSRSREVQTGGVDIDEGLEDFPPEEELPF

T6: TtRecF S261C;TtRecR (Thermus thermophilus;Thermus …, UniProt Q5SLM9;Q5SHY0 1-343;1-194, S261C|)
T6 sequence 1: T2 sequence 1 with C57D, S261C
T6 sequence 2: T1 sequence with C169G

T7: TtRecR (Thermus thermophilus, UniProt Q5SHY0 1-194)
T7 sequence: T1 sequence with C169G

T8: TtRecF (wild type RecF from Thermus thermophilus) (Thermus thermophilus, UniProt Q5SLM9 1-343)
T8 sequence (looked up): T2 sequence 1 with C57D

T9: TtRecF;TtRecR G169C (Thermus thermophilus;Thermus …, UniProt Q5SLM9;Q5SHY0 1-343;1-194, |G169C)
T9 sequence 1: T2 sequence 1 with C57D
T9 sequence 2: T1 sequence

T10: TtRecF;TtRecR (Thermus thermophilus;Thermus …, UniProt Q5SLM9;Q5SHY0 1-343;1-194, |)
T10 sequence 1: T2 sequence 1 with C57D
T10 sequence 2: T1 sequence with C169G

T11: TtRecF (Thermus thermophilus, UniProt Q5SLM9 1-343)
T11 sequence: T2 sequence 1 with C57D

B1: TtRecF_(D57C) (natural protein, Thermus thermophilus, UniProt Q5SLM9 1-343, looked up)
chain: T2 sequence 1
B2: TtRecR (wild type RecR from Thermus thermophilus) (natural protein, UniProt Q5SHY0 1-194, looked up)
chain: T1 sequence with C169G
B3: TtRecF_(S261C) (natural protein, Thermus thermophilus, UniProt Q5SLM9 1-343, looked up)
chain: T2 sequence 1 with C57D, S261C
B4: TtRecR_(G169C) (stabilized tetrameric mutant of TtRecR) (natural protein, Thermus thermophilus, UniProt Q5SHY0 1-194, looked up)
chain: T1 sequence

Experiments:
TtRecR G169C [1] = target: T1, TtRecR G169C; assay: BLI
TtRecF D57C;TtRecR = target: T2, TtRecF D57C;TtRecR; assay: BLI
TtRecF S261C = target: T3, TtRecF S261C; assay: BLI
TtRecF D57C = target: T4, TtRecF D57C; assay: BLI
TtSSB = target: T5, TtSSB; assay: BLI
TtRecF S261C;TtRecR = target: T6, TtRecF S261C;TtRecR; assay: BLI
TtRecR [2] = target: T7, TtRecR; assay: BLI
cross-linking = target: the molecule itself; assay: cross-linking
[3] = target: T8, TtRecF (wild type RecF from Thermus …); assay: native gel or EMSA
TtRecF_(D57C) = target: B1; assay: BLI
TtRecF_(S261C) = target: B3; assay: BLI
crystal structure = target: the molecule itself; assay: crystal structure
TtRecF;TtRecR G169C = target: T9, TtRecF;TtRecR G169C; assay: EMSA
TtRecF;TtRecR = target: T10, TtRecF;TtRecR; assay: EMSA
TtRecF = target: T11, TtRecF; assay: EMSA
TtRecR G169C [4] = target: T1, TtRecR G169C; assay: EMSA
TtRecR [5] = target: T7, TtRecR; assay: EMSA

Binder: GCAATGAAGTACGCTTGCCAGCTGCAGTCATGATTG (ssDNA) [biotinylated 36-mer ssDNA]
binding result (TtRecR G169C [1]): binds | binding result (TtRecF D57C;TtRecR): binds | Kd (TtRecF S261C): 19.7 µM | Kd (TtRecF D57C): 146 µM | Kd (TtSSB): ~0.0072 µM | binding result (TtRecF S261C;TtRecR): binds | binding result (TtRecR [2]): no binding

Binder: B1
stoichiometry N (cross-linking): 2

Binder: B2
binding result [3]: binds | binding result (TtRecF_(D57C)): binds | binding result (TtRecF_(S261C)): binds | stoichiometry N (crystal structure): 4

Binder: B3
stoichiometry N (cross-linking): 2

Binder: B4
stoichiometry N (cross-linking): 4 | binding result [3]: binds

Binder: TTTTTTTTTTTTTTTTTTTTTTTTTTTTTTTTTTT (ssDNA) [FAM-dT35]
binding result (TtRecF;TtRecR G169C): no binding | binding result (TtRecF;TtRecR): binds | binding result (TtRecF): no binding | binding result (TtRecR G169C [4]): no binding | binding result (TtRecR [5]): no binding
